# B1: mAb 20F08 (antibody, V domains shown)
# VH: EVQLVESGGGLVKPGGSLRLSCAASGFIFSNYNINWVRQAPGKGLEWVSCVSRSNYTYYTDSVKGRFTISRDNAKKSLYLQMNSLRAEDTAVYYCARDCGTYGVFDYWGQGTLVTVSS
# VL: ETTVTQSPASLSMAIGEKVTIRCITSTDIDDDMNWYQQKPGEPPKLLISEGNILRPGVPSRFSSSGYGTDFVFAIENMLSEDVADYYCLQSDNLPYTFGGGTKLELK
# notes: Hybridoma antibody from AlivaMab Mouse; Human HC (chimeric IgH with mouse CH2 and CH3) and murine LC; also called clone 20F08
# B2: mAb 46H02 (antibody, V domains shown)
# VH: QVQLVQSGAEVKKPGASVKVSCKASGYTFTGYSMHWVRQAPGQGLEWMGWINPHSGGTNSAQKFQGRVTMTRDTSIGTAYMELNRLRSDDTAVYYCVRDNPITGFDYWGQGTLVTVSS
# VL: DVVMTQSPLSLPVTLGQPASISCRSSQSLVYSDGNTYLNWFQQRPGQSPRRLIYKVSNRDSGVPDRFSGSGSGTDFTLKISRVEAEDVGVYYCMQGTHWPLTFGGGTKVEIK
# notes: Hybridoma antibody from AlivaMab Mouse; 46H02 has a fully human F(ab)2 (human light chain); also called clone 46H02
# B3: mAb 12H07 (antibody, V domains shown)
# VH: B1 VH
# VL: B1 VL
# notes: Hybridoma antibody from AlivaMab Mouse; Human HC (chimeric IgH with mouse CH2 and CH3) and murine LC; also called 12H7; clone 12H07
# B4: mAb 39F02 (antibody, V domains shown)
# VH: EVQLLESGGGLVQPGGSLRLSCAASGFTLSNYAMSWVRQAPGKGLEWVSAISGSGGGTYNADSVKGRFTISRDNSKNTLYLQMNSLRAEDTAVYYCAKEAWISYFDYWGQGTLVTVSS
# VL: DIVMSQSPSSLAVSVGEKVTLSCKSSQSLLYGDDQKNYLAWYQQKPGQSPKLLLYWASTWESGVPDRFTGSGSGTDFTLTISSVKAADLAVYYCQQYYSYPWTFGGGTKLEIK
# notes: Hybridoma antibody from AlivaMab Mouse; Human HC (chimeric IgH with mouse CH2 and CH3) and murine LC; also called clone 39F02
# B5: mAb 38E05 (antibody, V domains shown)
# VH: B4 VH
# VL: B4 VL
# notes: Hybridoma antibody from AlivaMab Mouse; Human HC (chimeric IgH with mouse CH2 and CH3) and murine LC; also called clone 38E05
# Molecular target: T1, human Galectin-3 (LGALS3) (human, UniProt P17931 2-250, limits assumed)
# T1 construct: also called human Gal-3; Gal-3
# Test: SPR, increasing concentrations of the mAb
# Excerpt: Clones 46H02 and 20F08 were then subjected to determination of binding parameters using surface plasmon resonance (SPR) in the presence of increasing concentrations of these antibodies.
# T1 sequence (P17931 2-250 limits assumed): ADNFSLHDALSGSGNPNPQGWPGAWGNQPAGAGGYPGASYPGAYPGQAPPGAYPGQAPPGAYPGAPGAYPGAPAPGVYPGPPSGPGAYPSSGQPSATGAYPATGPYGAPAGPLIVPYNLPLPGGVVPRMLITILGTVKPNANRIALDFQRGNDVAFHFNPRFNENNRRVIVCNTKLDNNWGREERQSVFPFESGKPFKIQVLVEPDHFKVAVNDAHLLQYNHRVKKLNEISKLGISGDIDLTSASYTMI
row,Kd,Binder
1,44 nM,B1
2,10 nM,B2

# Molecular target: T2, mouse Gal-3 (mouse, UniProt P16110 2-264, limits assumed)
# T2 construct: also called mouse Galectin-3; Lgal3
# Test: ELISA on mouse Gal-3 (moGal3)
# T2 sequence (P16110 2-264 limits assumed): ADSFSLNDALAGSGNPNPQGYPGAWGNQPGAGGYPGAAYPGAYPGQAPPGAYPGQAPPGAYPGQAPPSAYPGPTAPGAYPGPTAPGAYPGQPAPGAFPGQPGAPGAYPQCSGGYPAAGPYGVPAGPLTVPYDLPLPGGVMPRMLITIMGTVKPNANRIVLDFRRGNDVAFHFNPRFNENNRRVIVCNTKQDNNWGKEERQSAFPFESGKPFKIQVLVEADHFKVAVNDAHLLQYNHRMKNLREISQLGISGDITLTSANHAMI
row,binding result,Binder
1,no binding,B1
2,no binding,B3

# Molecular target: T1, human Galectin-3 (LGALS3)
# Test: ELISA on human Gal-3 (huGal3), one OD450 value per clone
row,OD450,Binder
1,0.523,B1
2,1.4,B3
3,2.56,B2
4,0.502,B4
5,0.86,B5

# Molecular target: T2, mouse Gal-3
# Test: ELISA on mouse Gal-3 (moGal3), one OD450 value per clone
row,OD450,Binder
1,0.047,B1
2,0.049,B3
3,1.38,B2
4,0.726,B4
5,1.12,B5

# Molecular target: T3, PE labeled Gal-3 (Gal-3-PE) (human, UniProt P17931 1-250, limits assumed, labelled with PE (phycoerythrin; Innova Biosciences kit), sites not stated)
# T3 construct: Bought human Gal-3 labelled with PE; also called huGal-3 (Abcam ab89487) labelled with PE
# Test: blockade of Gal-3-PE binding to OVCAR3 cells by purified antibody, number of Gal-3-PE-bound cells (Mirrorball)
# Excerpt: Reactions to measure binding of Gal-3-PE to OVCAR3 cells were set up in the presence of PBS (negative control), or increasing concentrations of the indicated antibody. Purified antibodies were used in the binding reactions. Shown are the effects of antibody concentration on the extent of inhibition of Gal-3-PE binding to OVCAR3 by antibody clones 20F08 and 12H07 (FIG. 6A), which have the identical sequences, 46H02 (FIG. 6B), clones 38E05 and 39F02 (FIG. 6C), which also have identical sequences, and 14D11.2D3 (FIG. 6D).
# An assay for Gal-3-PE binding to cancer cells was developed as a secondary screen. huGal-3 (Abcam ab89487) was labelled with PE (Innova Biosciences) according to manufacturer's instructions. The assay for Gal-3-PE binding to OVCAR3 cells was performed as follows: cultured […] cells were trypsinized and washed with culture medium. 500, 1000 or 2000 cells were incubated with various concentrations of Gal-3-PE. The indicated number of OVCAR3 cells were pipetted into a 96-well plate with the indicated amount of Gal-3-PE and incubated on the bench in the dark for 2 hrs prior to being read on a Mirrorball® device (TTP Labtech). Binding of Gal-3-PE to OVCAR3 cells was detected using the Mirrorball® flow cytometer.
# Next, the clones were subjected to determination of dose-response of blockade of Gal-3-PE binding to OVCAR3 cells. […]
# T3 sequence (P17931 whole entry): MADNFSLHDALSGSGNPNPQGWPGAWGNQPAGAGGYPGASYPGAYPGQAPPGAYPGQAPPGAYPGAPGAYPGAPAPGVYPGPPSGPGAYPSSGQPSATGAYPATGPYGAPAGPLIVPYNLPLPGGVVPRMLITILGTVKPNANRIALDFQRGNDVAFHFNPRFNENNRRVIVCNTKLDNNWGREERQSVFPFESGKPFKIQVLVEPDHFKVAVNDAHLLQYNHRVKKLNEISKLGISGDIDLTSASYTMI
row,IC50 (read off the curve),Binder
1,~1 µg/mL,B2

# From patent US20240026009A1 (Memorial Sloan Kettering, published 2024)
